From patent US20120213761

Molecular target: T1, tumor necrosis factor receptor-associated factor 2 (TRAF2), endogenous, in human cardiac tissue, Q12933
T1 chain: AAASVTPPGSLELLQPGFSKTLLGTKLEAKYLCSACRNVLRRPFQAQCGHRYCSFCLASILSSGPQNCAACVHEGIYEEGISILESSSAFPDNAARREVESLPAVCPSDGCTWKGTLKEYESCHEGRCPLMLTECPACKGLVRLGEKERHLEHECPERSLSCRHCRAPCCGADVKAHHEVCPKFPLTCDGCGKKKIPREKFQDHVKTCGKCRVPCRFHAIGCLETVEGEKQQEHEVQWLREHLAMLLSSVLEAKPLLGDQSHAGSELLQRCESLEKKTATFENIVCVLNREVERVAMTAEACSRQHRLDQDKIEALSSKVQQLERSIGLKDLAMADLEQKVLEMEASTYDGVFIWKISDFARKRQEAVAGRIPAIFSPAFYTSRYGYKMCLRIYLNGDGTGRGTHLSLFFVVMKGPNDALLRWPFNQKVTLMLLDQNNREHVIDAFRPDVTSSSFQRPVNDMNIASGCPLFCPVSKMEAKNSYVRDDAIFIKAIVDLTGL

B1: recombinant GSTP1 (Assay Design, Ann Arbor, Mich.) (protein)
chain: PPYTVVYFPVRGRCAALRMLLADQGQSWKEEVVTVETWQEGSLKASCLYGQLPKFQDGDLTLYQSNTILRHLGRTLGLYGKDQQEAALVDMVNDGVEDLRCKYISLIYTNYEAGKDDYVKALPGQLKPFETLLSQNQGGKTFIVGDQISFADYNLLDLLLIHEVLAPGCLDAFPLLSAYVGRLSARPKLKAFLASPEYVNLPINGNGKQ
In the case of B1, the “JNK1 and p38 activation (active JNK / active p38 protein, Western blot) in cardiac tissue cultures” value is reported as “acts as a negative regulator of JNK1 and p38 activation” and the “TNF-α-induced JNK and p38 activation in DCM cardiac tissue cultures (Western blot)” value is reported as “higher GSTP1 concentrations inhibit TNF-α-induced JNK and p38 activation in DCM”.
